We go through 21 sequences from the DeepSol protein solubility set.

A short description of the series: soluble on expression in E. coli; label from the status in PepcDB or PDB records.
“MMKEFNPREIEKKWQKRWEEAGVFKAQEGKPNKFYVLEMFPYPSGRIHMGHVRNYTIGDAIARYLKMRGKNILHPMGWDAFGLPAENAAIKHGIHPAKWTYENIDYMKKQLKILGFSYDWDREIATCDPEYYKWNQWIFLKMLERGIAYRKTAKVNWCPHDQTVLANEQVIEGKCWRCGTPIVQKEVPSWFLRITAYADRLLEDLKKLEGKWPERVIAQQRNWIGRSEGALIRFYVEIEEPEKFLNCVPEELKETLLKEKRIYIDVFTTRPDTVFGATFVVLAPEHPLVPVLACIGERLGNACYSDVENFVEKMKKMSTRERTMEEDKEGVFLGVYATNPANGEKIPVWSANYVLYEYGTGAIMCVPAHDQRDWEFAKKYDLPIKVVVKPEGAWDFEKGAYEGKGTLVNSDGFDGLDSETAKRKITEWLQDRGLGEKKVSYRLRDWNISRQRYWGTPIPVVYCEKCGMVPVPEDQLPVKLPLDVKFTGQGNPLETSEEFVNTTCPKCGGKARRETDTMDTFFDSSWYFLRFCDPKNDREPFSREKVDYWMPVDVYIGGIEHAVLHLLYARFFQKFLKDLGLVRDDEPFEKLITQGMVLKKWVSVKKLLDYLGLSEEDEVEELKKRLEELGARRA”: the “soluble on expression in E. coli” value is reported as “soluble”. Consider “MGSDKIHHHHHHMSPLKSFLGVIYMNRSERLNQELIFLSYRQEFHIKELMQEFNISKRTALRDVNSLEQLGLSIYVEPGRYGGYQIMQQQLWVPILLNSQEINALFFALKALSLLSATPFEKSYHTIYKKLMATLSLSNQRQVAKLQRVVNYYSIPNLDAPTHLSDLLTAILDENVVQLTMTTVTAGFQIFDLLYRHGIWFFSGVNLDNNAWGIYRCDTIKVFQTSEQPARYTWKQLAQRQRSYDHHHHNIRYKCALTPPGREHVQKNNYPNMHLTHQNDQDYLIGGYNQDELAYMVDYLLGLGRNVRIIYPEALKTAYLQELQQIQDFY”, for which the “soluble on expression in E. coli” value is recorded as “not soluble”. For the sequence “MGSDKIHHHHHHMGEIVLAAKCTHVPTMLMSEQEGPVKGKRQAAIDGHLEIARRARALGADTVVICDTHWVINAGFHINANSRFQGLFTSNEFPQFIQNMPYDYEGNPGLGDAIAKEASARGAYTLAHHLDSLELEYGTLVPMRFMSREHKMKVVSVAAWCTVHDHDESRIVGEAIRAAVEASNSKVLLVASGSLSHKIWPNKDYAANNGTFTISSEFNRQMDLHVLEMWKRGDHATFLKMLGDYARFCCGEGSMHDTAMLYGALGWDSYDKPCEVVTEYFPSSGTGQTNVIFPV”, the “soluble on expression in E. coli” value was “not soluble”. Consider “MSLNSPIQAVIFDWAGTIVDFGSFAPTSIFVEAFKQGFDFEISLAEAREPMGLGKWQHIEAVGKLPTVAQRWQKQFGRPMQASDIDAIYAAFMPLQIAKVADHAAPIPHSLEVVEQIRSRGIKIGSCSGYPRQVMDVLIAAAADYGYRPDYVVATDDLAQGGRPAPFMALKNVIELGVTDVRACVKVDDALPGIEEGHNAGMWTVGLLLSGNEAGLTLEEYQHADDQTLQAARERAQAKLQQAKPHYLIDTVADLPAVLAQIEQRLLAGEREGHHHHHH”, for which the “soluble on expression in E. coli” value is “soluble”. With “MRSSTIPAITPAYDPWEAYVDIKEYGKLQLTNIEFTTTTLCNMRCEHCAVGYTLTMKDPEALPLDMLLRRLEEIPHLRSLSITGGEPMLSLKSVEQYVVPLLRYAHERGVRTQLNSNLTLDLSRYEPVIPYLDVLHISHNWGTVDDFVEGGFAMMERKPTRAQREKYFQRMLDNAKALANAGVMVSAETMLNKRTVRHLEAIHRQVVEEMGCQRHEIHPMYPSDFASALETLSLDELREAIHHLLDIRDENVWMLFGTLPFYPCSDNEEDVRLLKRLYESKNVTVRNDPDGRSRLNVNIFTGDVIVTDFGDEPPLGNIIHDSLPDVYDKWRRSKLARELLCHCPSARCLGPNVLVKQTYYRGVDFTKRSARIGR” the entry was “not soluble”; with “TAVEPLALIRADGPTLPARGMHKPALCIIAQGRKEVQLAEERYIYDPLHYLVVSVTLPLAGQVIDASPDAPYLCVRLDIDPAEITQLISDAGPMEVASRRGDRGLYVDRIDASLLDAVLRLIHLLDSPRDIPMLAPLILREIFYRLLRSGQGQRL”, “not soluble”. For “EAHQIRRSGNYQPALWDSNYIQSLNTPYTEERHLDRKAELIVQVRILLKEKMEPVQQLELIHDLKYLGLSDFFQDEIKEILGVIYNEHKCFHNNEVEKMDLYFTALGFRLLRQHGFNISQDVFNCFKNEKGIDFKASLAQDTKGMLQLYEASFLLRKGEDTLELAREFATKCLQKKLDEGGNEIDENLLLWIRHSLDLPLHWRIQSVEARWFIDAYARRPDMNPLIFELAKLNFNIIQATHQQELKDLSRWWSRLCFPEKLPFVRDRLVESFFWAVGMFEPHQHGYQRKMAATIIVLATVIDDIYDVYGTLDELELFTDTFKRWDTESITRLPYYMQLCYWGVHNYISDAAYDILKEHGFFCLQYLRKSVVDLVEAYFHEAKWYHSGYTPSLDEYLNIAKISVASPAIISPTYFTFANASHDTAVIDSLYQYHDILCLAGIILRLPDDLGTSYFELARGDVPKTIQCYMKETNASEEEAVEHVKFLIREAWKDMNTAIAAGYPFPDGMVAGAANIGRVAQFIYLHGDGFGVQHSKTYEHIAGLLFEPYA”, the “soluble on expression in E. coli” value is listed as “soluble”. With “MPIPNNPGAGENAFDPVFVKDDDGYDLDSFMIPAHYKKYLTKVLVPNGVIKNRIEKLARDVMKEMGGHHIVALCVLKGGYKFFADLLDYIKALNRNSDRSIPMTVDFIRLKSYCNDQSTGDIKVIGGDDLSTLTGKNVLIVEDIIDTGKTMQTLLSLVRQYNPKMVKVACLFIKRTPLWNGFKADFVGFSIPDHFVVGYSLDYNEIFRDLDHCCLVNDEGKKKYKATSL” the entry was “soluble”. Under “MEALDSSSFTFPQDYEFSYVVNHNCSADGNTYCVQPVKPTTVSRFGTRYIKFDIKALPVGSPIPCKSPKEWRVIKG” stands “not soluble”; under “MADLPSISLITATYNAAQHLPGLIESVRQQSDRAFEWIVIDGASEDGTLDLIRGAQDVITDYVSEPDFGIFHALNKGIQRATGDYYLVVGADDRLDPLAIANYKQAAASSQADLISAYIYSEKKAIIKPTGGAIWHHGVQAFITTQSVGTLIKRNLHEHYGYYSHYYPTAADALFILKVQQGGGKITTAEFIAGQYNTKGFSYRYKANLLCELFLIQKEFFPKSIQLLLLIYRLIKNYRYLLEHHHHHH”, “not soluble”. With “MNAQEFKEKKTETTGAHHAQRLGIAAGMTVQEVGWDEDCDSTISEAIEDILGEELLDEETDEACDVVLLWWRSDDGDLVDGLVDSIRPLADNGRIWLLTPGAGKQGALDPGEISESAQLAGLVQTKAERLGAWQGSCLVQRGNKQ” the entry was “not soluble”.

Regarding “MKIALIGASGYVGSALLKEALSRGHHVTALVSRPERIAAQANLAAAKVDVQDSAQLAEQLKGFDAVLSAFSGHAQAEQFDYFVKGIRSIIAAAKAAQAPRLLVVGGAGSLEVAPGVQLVDTPEFPEQWKASALGAREALNLLRAETELNWTLLSPSAMLQPGQRTGQFRLGKDQLLVDAEGNSHISVEDYAVAMIDELEKGEHQRSRFTVGYLEHHHHHH”, the “soluble on expression in E. coli” value is recorded as “soluble”. On to “MGSDKIHHHHHHMINKELTAATFMEVIAEDNRFIYDGIDSNFEPELVFLEFFEALLSFAFICVTDQMTKSYTNVPADDVSGNKHETIYTILNQDAQNKSPSAVMSHESDAAHSDSARSSSSKLELSPDVNKIRKSEPKIKKSVSHERVSKMNFKLTGKGITFFSSESKKYERPKDDREEEFNTWVNNTYVFFVNTLFHAYKREEAIKEKIRADRLRSTAQAQQRKMEDDELEARLNIFILREEEAKRHDYEVDITVLKEPADVSSSHLILDPPKEDVTVSPSSKTITSKKKKK”, for which the “soluble on expression in E. coli” value was “not soluble”. With “MAHHHHHHMNNLTLGDSNICGTFNKLPFIESYYNRKGILLKSYSWLVKNAIGIIVLVHGLSAHLRLQYLKLNVNVVNNDYATLIDADNYYIYEDSWIEEFNKNGYSVYGIDLQGHGESDGLDKLPLHINNFDDYVYDIIDYMRRINNSIVLEKSMQKSTSNKYTIENREELLPMYLVGLSMGGNIVLRTLEILGKSNEINSNLNIKGCISLAGMISVRMVGSIDSIKYKYFYLPVMKIFSRYFPTFRPGKKKFKFEKYPFVNDLLFYDKYRFKGRITNNLAREILVALDNLHNNIDDIPKNIPILFIHSINDCLCWYEGTVSFYNKLQIDNKELYTLEDMDHVISMEPGNENVLKKILEWISNLYVQ” the entry was “not soluble”. Under “SLDIKEIVGDYNSFLDTIFELLIKGGFKENELKELPIDHICYRVSTNEFYNEKKEQLNQLGELLVETEIGGRMISTFKLNKPIQYKDKSIPLIELPAPKKNRINYDGLEHIEMVINEPFQSFVDNHPSPIDENLKFNWVLHALNKDINPDVECEFIDPRIKNEIRTISVKFHHQSLEEVVKYEIQLLKENEG” stands “soluble”; under “MRCVGVGNRDFVEGVSGGAWVDLVLEHGGCVTTMAQGKPTLDFELTKTTAKEVALLRTYCIEASISNITTATRCPTQGEPYLKEEQDQQYICRRDVVDRGWGNGCGLFGKGGVVTCAKFSCSGKITGNLVQIENLEYTVVVTVHNGDTHAVGNDTSNHGVTATITPRSPSVEVKLPDYGELTLDCEPRSGIDFNEMILMKMKKKTWLVHKQWFLDLPLPWTAGADTSEVHWNYKERMVTFKVPHAKRQDVTVLGSQEGAMHSALAGATEVDSGDGNHMFAGHLKCKVRMEKLRIKGMSYTMCPGKFSIDKEMAETQHGTTVVKVKYEGAGAPCKVPIEIRDVNKEKVVGRIISSTPLAENTNSATNIELEPPFGDSYIVIGVGNSALTLHWFRKGSSIGKSLEHHHHHHHH”, “not soluble”.

“MIKCIYIVCALNDNTIYSTLHYMEYSIQRGEIYMKIIKRSGSEDIFDAAKIVAAIRKANDSVLDYEKLTADQIEEIASNVETACENMKRSPSVEEIQDMVENQLMNKRAFTVARNYITYRYKRAIVRKSNST”: the “soluble on expression in E. coli” value was “not soluble”. “MGCDFAIAKDFLLFFLTKPISMKLSVIIPIYNEIQTIEKILKKITTVMPEIPKEIVMVDDGSKDGTREWLVDTFGDPEQHPVLANVNLAGKFQCFPLDQSAETNGDRQGNSFVMPKEWEVKVIFHRQNQGKGGALHTAFAAATGDVLIIQDADLEYDPEDWGPMWKLIDGGWADVVYGSRFYGNPHRVLYFHHYLGNKLITSLIDLVCNINLTDIEVCYKMFRREVLEDLRLTCNDFGFEVEFTMKVTRSPKRWRIYEVGVAYYGRTFAEGKKINWRDGVKALGYIAKFWLTNALEHHHHHH”: the “soluble on expression in E. coli” value is “not soluble”. In the case of “MSYYHHHHHHDYDIPTTENLTFQGAMEPTSSLNRGDRKKGSSLVTGSEVQSQSNGASCFITTDSEKSLVSRQASQVEQIELRTYVFLDSLQPQLAAYMGTVSRGFLPIPGDSCLWMEVSPGMAVHRVTDIALKASNVRLGQMIVERAFGSLALYHKDQSTVLHSGDVVLDAIGSEVRKRTKPSTSWTEVICAITPDHAVLINRQNRSGSMIQSGMSMFILETEPAGYVLKAANEAEKSANITIIDVKAVGAFGRLTLAGKEGDVEEAAAAAIRAIDQISNY”, the “soluble on expression in E. coli” value is recorded as “soluble”.

Take “MKPIQVEREIFRYEQGAIKHIEDSIVTEFPVTIKMNGQEFVTMVSTPEYIEDMVIGFLASEGIIRKYEDIDSVWVQEKEGFVHVTTTKVNPYYEQMQNKRYITSCCGMSRQGFVFANDALSAKKMKGVHVQVAADDCFRLMKEMQQSADTFHRTGGVHNAALCDVNGIILSRMDIGRHNALDKIYGYCLRNDISIKDKIIVFSGRISSEILLKVAKIGCEIILSKSAPTELALQLAEDLGITTIGFIRNHSLNVYTHPERVLNIKLEHHHHHH”: the “soluble on expression in E. coli” value is given as “soluble”.

For the sequence “GMSVKVSVDDIDGITEVLNVYMNAAESGTGEEMSAAFHKDATIFGYVGDKLAFNGPIKDLYDWHNSNGPAKNVQSRITNIDIVGTVAHARVEAENWTNFKFSDLFLLLKLDGKWTIVNKVFHLHA”, the “soluble on expression in E. coli” value is “soluble”.
